One block for each substance: values may come before it.
What was measured:
[1] = biological target: human TREM-1 on cells (BWZ/hTREM-1 reporter cells, PBMCs, macrophages, neutrophils, monocytes, synovial tissue cells) (human) (UniProt Q9NP99); assay: cell-based or functional assay
[2] = biological target: human TREM-1 (hTREM-1 protein, SPR analyte of Examples 9 and 11) (human) (UniProt Q9NP99); assay: SPR, mAb captured, hTREM-1 analyte (Example 11)
[3] = biological target: cynomolgus TREM-1 (cTREM-1 protein, SPR analyte of Examples 9 and 11) (cynomolgus monkey); assay: SPR, mAb captured, cTREM-1 analyte (Example 11)
[4] = biological target: T1, cynomolgus monkey TREM-1 on cells (reporter cells, PBMCs, macrophages) (cynomolgus monkey); assay: cell-based or functional assay
T1 sequence: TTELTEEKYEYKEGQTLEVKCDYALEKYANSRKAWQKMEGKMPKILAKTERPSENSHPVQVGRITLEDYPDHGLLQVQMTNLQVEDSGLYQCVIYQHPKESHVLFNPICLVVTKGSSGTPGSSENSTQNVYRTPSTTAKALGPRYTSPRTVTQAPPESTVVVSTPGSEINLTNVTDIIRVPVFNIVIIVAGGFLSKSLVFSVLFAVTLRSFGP

Chain of human TREM-1 (hTREM-1 protein, SPR analyte of Examples 9 and 11) (human) (Q9NP99 21-200 limits assumed): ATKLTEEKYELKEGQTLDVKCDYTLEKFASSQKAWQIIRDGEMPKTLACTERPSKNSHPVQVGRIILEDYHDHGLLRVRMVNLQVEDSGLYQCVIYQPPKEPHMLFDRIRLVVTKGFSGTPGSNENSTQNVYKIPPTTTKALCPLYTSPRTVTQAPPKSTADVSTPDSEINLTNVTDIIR
Chain of human PGLYRP1 (O75594 22-196 limits assumed): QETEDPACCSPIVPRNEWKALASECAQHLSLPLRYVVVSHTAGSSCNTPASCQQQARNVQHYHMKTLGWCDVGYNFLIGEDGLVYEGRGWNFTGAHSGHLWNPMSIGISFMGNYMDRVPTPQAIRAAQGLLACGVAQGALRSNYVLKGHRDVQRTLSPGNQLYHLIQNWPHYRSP
Chain of human TREM-1 on cells (BWZ/hTREM-1 reporter cells, PBMCs, macrophages, neutrophils, monocytes, synovial tissue cells) (human) (Q9NP99 21-234 limits assumed): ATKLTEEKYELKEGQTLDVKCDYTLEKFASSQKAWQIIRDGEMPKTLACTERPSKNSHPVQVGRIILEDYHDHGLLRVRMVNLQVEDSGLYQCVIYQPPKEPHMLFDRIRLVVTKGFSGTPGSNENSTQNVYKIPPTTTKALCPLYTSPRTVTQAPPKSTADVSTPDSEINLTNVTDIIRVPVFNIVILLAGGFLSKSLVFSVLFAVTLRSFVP

Substance: MAB1278 (R&D Systems, cat. no. MAB1278) (antibody)
BWZ/hTREM-1 reporter signal, RA synovial fluid, mAb 0.1 ug/ml, assay 1 [1]: 829000
BWZ/hTREM-1 reporter signal, RA synovial fluid, mAb 0.1 ug/ml, assay 2 [1]: 691000
BWZ/hTREM-1 reporter signal, RA synovial fluid, mAb 1 ug/ml, assay 1 [1]: 1.19e+06
BWZ/hTREM-1 reporter signal, RA synovial fluid, mAb 1 ug/ml, assay 2 [1]: 1.02e+06
BWZ/hTREM-1 reporter signal, RA synovial fluid, mAb 10 ug/ml, assay 1 [1]: 1.08e+06
BWZ/hTREM-1 reporter signal, RA synovial fluid, mAb 10 ug/ml, assay 2 [1]: 1.05e+06
IL-6, M2 macrophages on platebound mAb 2 µg/ml, Avg [1]: 412 pg/mL
IL-6, M2 macrophages on platebound mAb 6 µg/ml, Avg [1]: 877 pg/mL
IL-6, M2 macrophages on platebound mAb 20 µg/ml, Avg [1]: 1350 pg/mL
Luminescence × 10E6, BWZ/hTREM-1 reporter cells + activated neutrophils [1]: 1e+07 luminescence
TNFa, M2 macrophages on platebound mAb 2 µg/ml, Avg [1]: 2000 pg/mL
TNFa, M2 macrophages on platebound mAb 6 µg/ml, Avg [1]: 6450 pg/mL
TNFa, M2 macrophages on platebound mAb 20 µg/ml, Avg [1]: 7750 pg/mL
induction of NFAT-driven LacZ production, 1-10 µg/ml plate bound antibody [1]: 40 fold
induction of reporter luminescence, platebound antibody (FIG. 2) [1]: 32 fold
normalised reporter signal, antibody at 1 µg/ml (FIG. 3) [1]: > 1

Substance: SC98Z12 (Santa Cruz Biotechnology, sc-80394, clone 98Z12) (antibody)
Kd [2]: 30 nM
% remaining activity at 0.003 µg/ml, BWZ/hTREM-1 reporter assay [1]: 120%
% remaining activity at 0.03 µg/ml, BWZ/hTREM-1 reporter assay [1]: 134%
% remaining activity at 0.3 µg/ml, BWZ/hTREM-1 reporter assay [1]: 131%

Substance: Sigma #SAB1405121 (clone 3F5) (antibody)
% remaining activity at 0.003 µg/ml, BWZ/hTREM-1 reporter assay [1]: 104%
% remaining activity at 0.03 µg/ml, BWZ/hTREM-1 reporter assay [1]: 101%
% remaining activity at 0.3 µg/ml, BWZ/hTREM-1 reporter assay [1]: 97%

Substance: Sigma #WH0054210M4 (clone 2E2) (antibody)
Kd [2]: 20 nM
% remaining activity at 0.003 µg/ml, BWZ/hTREM-1 reporter assay [1]: 98%
% remaining activity at 0.03 µg/ml, BWZ/hTREM-1 reporter assay [1]: 104%
% remaining activity at 0.3 µg/ml, BWZ/hTREM-1 reporter assay [1]: 86%

Other lines, results leading:

Kd [3]: 4 nM
Kd [2]: 0.9 nM
% remaining activity at 0.003 µg/ml, BWZ/hTREM-1 reporter assay [1]: 100%
% remaining activity at 0.03 µg/ml, BWZ/hTREM-1 reporter assay [1]: 124%
% remaining activity at 0.3 µg/ml, BWZ/hTREM-1 reporter assay [1]: 108%
Luminescence × 10E6, BWZ/hTREM-1 reporter cells + activated neutrophils [1]: 9.9e+06 luminescence
normalised reporter signal, antibody at 1 µg/ml (FIG. 3) [1]: > 1
% remaining cyno TREM-1 activity at 0.74 ug/ml, reporter assay [4]: 104%
% remaining cyno TREM-1 activity at 20 ug/ml, reporter assay [4]: 87.7%
Substance: TREM-26 (Biolegend, cat. nos. 314902 and 314907) (antibody)

Kd [2]: 0.8 nM
% remaining activity at 0.003 µg/ml, BWZ/hTREM-1 reporter assay [1]: 98%
% remaining activity at 0.03 µg/ml, BWZ/hTREM-1 reporter assay [1]: 103%
% remaining activity at 0.3 µg/ml, BWZ/hTREM-1 reporter assay [1]: 90%
Luminescence × 10E6, BWZ/hTREM-1 reporter cells + activated neutrophils [1]: 6.1e+06 luminescence
normalised reporter signal, antibody at 1 µg/ml (FIG. 3) [1]: > 1
Substance: TREM-37 (Biolegend, cat. no. 316102) (antibody)

GM-CSF, RA synovial tissue cells, PGN + PGLYRP1 [1]: 616 pg/mL
IL-1beta, RA synovial tissue cells, PGN + PGLYRP1 [1]: 3770 pg/mL
IL-6, RA synovial tissue cells, PGN + PGLYRP1 [1]: 4190 pg/mL
IL-8, RA synovial tissue cells, PGN + PGLYRP1 [1]: 5510 pg/mL
MCP-1, RA synovial tissue cells, PGN + PGLYRP1 [1]: 471 pg/mL
MIP-1beta, RA synovial tissue cells, PGN + PGLYRP1 [1]: 4400 pg/mL
TNFa, normoxic M2 macrophages, PGN-BS + PGLYRP1, Donor 1 Avg [1]: 728 pg/mL
TNFa, normoxic M2 macrophages, PGN-BS + PGLYRP1, Donor 2 Avg [1]: 771 pg/mL
TNFalpha, RA synovial tissue cells, PGN + PGLYRP1 [1]: 1440 pg/mL
TNF-α, cyno M2 macrophages, PGN + PGRP-S, Donor 1 Avg [4]: 295 pg/mL
TNF-α, cyno M2 macrophages, PGN + PGRP-S, Donor 2 Avg [4]: 307 pg/mL
Substance: human PGLYRP1 (from UniProt O75594 22-196) (ligand)

TNF-a release, RA synovial tissue cells, IgG4 + Type II cells, 1 × 10^4 HEK cells [1]: 95 pg/mL
TNF-a release, RA synovial tissue cells, IgG4 + Type II cells, 1 × 10^5 HEK cells [1]: 121 pg/mL
TNF-a release, RA synovial tissue cells, IgG4 + Type II cells, 3 × 10^3 HEK cells [1]: 54.6 pg/mL
TNF-a release, RA synovial tissue cells, IgG4 + Type II cells, 3 × 10^3 HEK cells (second column so headed) [1]: 57.9 pg/mL
TNF-a release, RA synovial tissue cells, IgG4 + Type II cells, 3 × 10^4 HEK cells [1]: 114 pg/mL
Substance: type II PGLYRP1 on transiently transfected HEK cells (ligand)

— US20210253697A1
